The source of these data is article PMC3867114, “Kinetic analysis of the interactions between plant thioredoxin and target proteins” (Frontiers in Plant Science, 2013).

Data set [1] deals with the molecule itself. As to the kind of experiment: mixed disulfide complex formation, non-reducing SDS-PAGE with N-terminal sequencing; 50 μM Trxh1CS and 50 μM PrxQ incubated for the periods indicated, quenched with 5% TCA, non-reducing SDS-PAGE.
In data set [2] the target is Trxh1 mutant with a C43S substitution (Arabidopsis thaliana) (UniProt P29448). Put plainly: SPR; Biacore X, 25°C; Trx variant immobilised as ligand on a CM5 chip by amine coupling (800–900 RU); target protein injected as analyte; H buffer (10 mM HEPES-NaOH, 150 mM NaCl, 50 μM EDTA, pH 7.4) with 0.005% Surfactant P20; 1:1 model for MDH, double exponential model for PrxQ; apparent (mixed disulfide formation with Trxh1CS). For orientation: In SPR one partner is held on a chip, and binding of the other changes the refractive index at the surface.

Data set [3] deals with the molecule itself. Put plainly: SEC; TSK-G2000SWXL in H buffer, 280 nm; as a2 but without NEM treatment before the chromatography (for MDH: second round of the fractionated complex). A general note: SEC sorts molecules by how far they enter the pores of the column.

B1: Trxh1 mutant with a C43S substitution (natural protein, Arabidopsis thaliana, UniProt P29448 1-114, looked up)
chain: MASEEGQVIACHTVETWNEQLQKANESKTLVVVDFTASWCGPSRFIAPFFADLAKKLPNVLFLKVDTDELKSVASDWAIQAMPTFMFLKEGKILDKVVGAKKDELQSTIAKHLA
notes: thioredoxin h1 (Trxh1), cytosolic, Arabidopsis thaliana, AT3G51030, with C43S; Lacks the second cysteine of the catalytic motif; also called Trxh1CS; Trxh1CS mutant; source: expressed and purified as the wild-type Trxh1, with 0.5 mM DTT in all purification procedures
On to B1, for which, in data set [1], the binding result is listed as “binds”.

B2: Arabidopsis thaliana cytosolic malate dehydrogenase, oxidized form (enzyme, UniProt P93819 1-332, looked up)
chain: MAKEPVRVLVTGAAGQIGYALVPMIARGIMLGADQPVILHMLDIPPAAEALNGVKMELIDAAFPLLKGVVATTDAVEGCTGVNVAVMVGGFPRKEGMERKDVMSKNVSIYKSQAAALEKHAAPNCKVLVVANPANTNALILKEFAPSIPEKNISCLTRLDHNRALGQISERLSVPVSDVKNVIIWGNHSSSQYPDVNHAKVQTSSGEKPVRELVKDDAWLDGEFISTVQQRGAAIIKARKLSSALSAASSACDHIRDWVLGTPEGTFVSMGVYSDGSYSVPSGLIYSFPVTCRNGDWSIVQGLPIDEVSRKKMDLTAEELKEEKDLAYSCLS
modifications: Cys330–Cys330 intermolecular disulfide bond (oxidized form)
notes: cytosolic malate dehydrogenase (MDH), Arabidopsis thaliana, AT1G04410; also called MDH; oxidized MDH; source: cloned and purified as described in earlier work; oxidized by incubation with 50 μM CuCl2 for 1 h at 30°C
The koff is the rate constant with which the complex falls apart. For orientation: kon means the second-order rate constant of association. In the case of B2, in data set [2], the koff worked out at 0.000301 s⁻¹ and the kon came to 247 M⁻¹ s⁻¹. For the same molecule, the binding result in data set [3] was “binds”.
